To fix the notation:
B1: Mycobacterium tuberculosis WhiB1, untagged, [4Fe-4S] form (holo-WhiB1), co-expressed with His-tagged σ^A or σ^ACTD (natural protein)
chain: MDWRHKAVCRDEDPELFFPVGNSGPALAQIADAKLVCNRCPVTTECLSWALNTGQDSGVWGGMSEDERRALKRRNARTKARTGV
modifications: [4Fe-4S] cluster coordinated by cysteine residues 9, 37, 40 and 46
notes: Iron-sulfur cluster assembled in vivo; free [4Fe-4S]; WhiB1 seen at 9668 Da and apo-WhiB1 at 9315 Da in native ESI-MS; also called [4Fe-4S]-WhiB1; untagged WhiB1
B3: His-tagged C-terminal domain (amino acids Ala447-Asp528) of M. tuberculosis σ^A (domain or fragment)
chain: AVDAVSFTLLQDQLQSVLDTLSEREAGVVRLRFGLTDGQPRTLDEIGQVYGVTRERIRQIESKTMSKLRHPSRSQVLRDYLD
notes: A thrombin cleavage site lies between the His6 tag and the domain; seen at 11,522 Da in native ESI-MS; also called His-σ^ACTD; σ^ACTD; not shown: His6, N-terminal, kept

In assay [1] the target is B3. The assay can be described thus: native MS. To be noted: both partners purified.
The target in assay [2] is T1, M. tuberculosis σ^ACTD fused to the T18 domain of Bordetella pertussis adenylate cyclase (Mycobacterium tuberculosis, UniProt P9WGI1 447-528).
T1 construct: also called T18-σ^ACTD
T1 sequence: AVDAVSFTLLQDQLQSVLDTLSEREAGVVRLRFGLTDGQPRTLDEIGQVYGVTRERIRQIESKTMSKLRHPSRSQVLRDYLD
The assay can be described thus: two-hybrid. To be noted: partners not purified.

In assay [3] the target is B1. The assay can be described thus: pull-down. To be noted: partners not purified.

For orientation: stoichiometry N means a count of units in the complex or per binding partner.

Regarding B1, the “stoichiometry N” value in assay [1] is 1.

B2: M. tuberculosis WhiB1 fused to the T25 domain of Bordetella pertussis adenylate cyclase (natural protein)
chain: MDWRHKAVCRDEDPELFFPVGNSGPALAQIADAKLVCNRCPVTTECLSWALNTGQDSGVWGGMSEDERRALKRRNARTKARTGV
notes: also called T25-WhiB1
Take B2: in assay [2], the “β-galactosidase activity against the negative control (vectors only)” value is ~20 fold and the “β-galactosidase activity against the positive control (Zip-Zip)” value is ~3 fold lower.
Consider B3, for which the binding result in assay [3] is “binds”.
